The values that follow come from patent publication US20110070243A1 (published 2011).

In one assay the target is T1, rhesus CD79b (rhesus monkey, UniProt H9ZFT8 30-231).
T1 construct: whole, on cells; also called rhesus monkey CD79b
T1 sequence: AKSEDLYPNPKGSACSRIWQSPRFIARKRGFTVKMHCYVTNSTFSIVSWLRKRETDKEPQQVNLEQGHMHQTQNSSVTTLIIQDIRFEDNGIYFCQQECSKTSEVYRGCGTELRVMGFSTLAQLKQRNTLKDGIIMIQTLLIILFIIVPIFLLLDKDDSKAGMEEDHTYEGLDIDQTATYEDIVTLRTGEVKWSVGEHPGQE
Kind of assay: staining of rhesus monkey B cells; method not detailed.

Assay [1] addresses T2, cyno CD79b (TAHO40) (cynomolgus monkey).
T2 construct: Target on BJAB-cyno CD79b cells (BJAB transfected with cyno CD79b) and on cynomolgus B cells; also called cynomolgus CD79b; PRO283627
T2 chain: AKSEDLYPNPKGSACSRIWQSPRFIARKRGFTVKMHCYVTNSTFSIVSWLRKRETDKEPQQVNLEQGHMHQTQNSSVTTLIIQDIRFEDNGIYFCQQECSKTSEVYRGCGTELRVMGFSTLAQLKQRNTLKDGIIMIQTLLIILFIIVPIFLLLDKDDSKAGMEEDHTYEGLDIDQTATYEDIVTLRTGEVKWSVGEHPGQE
Kind of assay: staining of cynomolgus monkey B cells; method not detailed.

The target in a further assay is T3, human CD79b (TAHO5) (human, UniProt P40259 29-229).
T3 construct: also called PRO36249; Igbeta
T3 sequence: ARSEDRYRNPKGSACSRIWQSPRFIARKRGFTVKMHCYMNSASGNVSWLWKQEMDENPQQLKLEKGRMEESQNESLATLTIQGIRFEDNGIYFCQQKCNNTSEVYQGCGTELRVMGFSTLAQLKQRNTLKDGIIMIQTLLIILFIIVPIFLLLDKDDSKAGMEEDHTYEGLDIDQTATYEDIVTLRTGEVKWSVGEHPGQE
Nature of the assay: Scatchard analysis on BJAB-cyno CD79b cells (which also express human CD79b).

Assay [2] deals with T4, cyno CD79b (TAHO40) 21mer peptide (cynomolgus monkey).
T4 construct: also called cyno CD79b (TAHO40) 20 mer peptides
T4 peptide: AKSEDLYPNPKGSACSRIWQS
Kind of assay: peptide competition: antibody pre-incubated with the cyno peptide, then FACS staining of BJAB cells.

Assay [3] concerns the target T2, cyno CD79b (TAHO40). Nature of the assay: Scatchard analysis on BJAB-cyno CD79b cells.
Assay [4] concerns the target T5, human CD79b (TAHO5) 21mer peptide (human).
T5 peptide: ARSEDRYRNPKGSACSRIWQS
Kind of assay: peptide competition: antibody pre-incubated with the human 21mer peptide, then FACS staining of cells.

B1: anti-human CD79b (TAHO5) antibody SN8 (antibody, V domains shown)
VL: DIVLTQSPASLAVSLGQRATISCKASQSVDYDGDSFLNWYQQKPGQPPKLFIYAASNLESGIPARFSGSGSGTDFTLNIHPVEEEDAATYYCQQSNEDPLTFGAGTELELKR
VH: EVQLQQSGAELMKPGASVKISCKATGYTFSSYWIEWVKQRPGHGLEWIGEILPGGGDTNYNEIFKGKATFTADTSSNTAYMQLSSLTSEDSAVYYCTRRVPVYFDYWGQGTSVTVSS
notes: Murine monoclonal antibody, commercial (Biomeda, BD, Ancell) or from the Roswell Park hybridoma; also called anti-human CD79b (SN8)
For orientation: Kd means the constant that tells how readily two partners part at equilibrium. For B1, the binding result with rhesus CD79b was “no binding”; in the assay with cyno CD79b (TAHO40) [1], “no binding”; in assay [2], “no binding (tested: antibody:peptide 1:10)”. In the assay with human CD79b (TAHO5), this molecule returned a Kd of 0.5 nM.

B2: anti-cyno-CD79b-10D10 (antibody, V domains shown)
VH: EVQLQESGPGLVKPSQSLSLTCTVTGYSITSDYAWNWIRQFPGNKLEWMGNIWYSGSTTYNPSLKSRISITRDTSKNQFFLQLNSVTSEDTATYYCSRMDFWGQGTTLTVSS
VL: DIVLTQSPPSLAVSLGQRATISCRASESVDSYGKTFMHWHQQKPGQPPKLLIYRVSNLESGIPARFSGSGSRTDFTLTINPVEADDVATYYCQQSNEDPFTFGGGTKLEIKR
notes: Murine hybridoma monoclonal antibody; also called 10D10.3; ATCC PTA-7715
As to B2, in the assay with cyno CD79b (TAHO40) [3], the Kd was determined as 1 nM. Also, the binding result in assay [4] was “no binding (tested: antibody:peptide 1:10)”.

B3: anti-human-CD79b-2F2 (antibody, V domains shown)
VH: QVQLQQPGAELVRPGASVKLSCKASGYTFTSYWMNWVKQRPGQGLEWIGMIDPSDSETHYNHIFKDKATLTVDKSSSTAYLQLSSLTSEDSAVYYCARNLYLWGQGTSVTVSL
VL: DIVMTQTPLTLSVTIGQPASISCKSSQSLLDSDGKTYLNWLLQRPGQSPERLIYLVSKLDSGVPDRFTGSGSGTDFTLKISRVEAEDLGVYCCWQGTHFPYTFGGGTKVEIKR
notes: Murine hybridoma monoclonal antibody; also called 2F2.20.1; anti-human CD79b (TAHO5) (2F2)
On to B3, for which the figures for the binding result (in the assay with rhesus CD79b; in the assay with cyno CD79b (TAHO40) [1]; in assay [2]) were “no binding”, “no binding” and “no binding (tested: antibody:peptide 1:10)”, respectively.
